Source: the DeepSol protein solubility set

test: soluble on expression in E. coli; label from the status in PepcDB or PDB records

| Sequence | soluble on expression in E. coli |
| --- | --- |
| MLKLFSAFRKNKIWDFNGGIHPPEMKTQSNGTPLRQVPLAQRFVIPLKQHIGAEGELCVSVGDKVLRGQPLTRGRGKMLPVHAPTSGTVTAIAPHSTAHPSALAELSVIIDADGEDCWIPRDGWADYRTRSREELIERIHQFGVAGLGGAGFPTGVKLQGGGDKIETLIINAAECEPYITADDRLMQDCAAQVVEGIRILAHILQPREILIGIEDNKPQAISMLRAVLADSNDISLRVIPTKYPSGGAKQLTYILTGKQVPHGGRSSDIGVLMQNVGTAYAVKRAVIDGEPITERVVTLTGEAIARPGNVWARLGTPVRHLLNDAGFCPSADQMVIMGGPLMGFTLPWLDVPVVKITNCLLAPSANELGEPQEEQSCIRCSACADACPADLLPQQLYWFSKGQQHDKATTHNIADCIECGACAWVCPSNIPLVQYFRQEKAEIAAIRQEEKRAAEAKARFEARQARLEREKAARLERHKSAAVQPAAKDKDAIAAALARVKEKQAQATQPIVIKAGERPDNSAIIAAREARKAQARAKQAELQQTNDAATVADPRKTAVEAAIARAKARKLEQQQANAEPEQQVDPRKAAVEAAIARAKARKLEQQQANAEPEEQVDPRKAAVEAAIARAKARKLEQQQANAEPEQQVDPRKAAVEAAIARAKARKREQQPANAEPEEQVDPRKAAVEAAIARAKARKLEQQQANAVPEEQVDPRKAAVAAAIARAQAKKAAQQKVVNEDLEHHHHHH | soluble |
| MGSDKIHHHHHHMLHIVNNLRDSFTPGTPHQAALAQIFPQDSEKQTMDKRDLSAIFRERLKLLLTRSDLNQSAFASAVGIDRSALSQLMSGASTRLPRAETLLNIAAEFKVSLDWLLGLSQDEGVTGEIRESLEIEEAPDGFDRTLLAKWFAEAAGTKIRYVPAGIPDLLRTRALVDYEANITNRSRLAQASETQYRIEYNRRPETDMEVCMPRHTLEIFARGLGVWDRFPEADRRQQLAHMATLLDDLYPTFRLFLYDGRMRYSIPLTIFGPYRAAIYVGDMYVVLNATQPVQALTQHFDNLIRAADVNPHEAAAFARNLAGMSFPSGSV | not soluble |
| MGSDKIHHHHHHGGEDYVQAEQAPMLKIPEGLKTPPYNKEYDVPALGPKANPALVGKNLDIRPPLQVLPMAEGTHVEEGSDNIKIVVESIDNNVDLKQEIFTNLDDFFAKQAIPIRSRDFDKGSIETDWIESREVLESSLWGSDKEYLLRQRYRFDVETRPHGRTANIVIHLVEHEEFYDGKEQKVMLSGEDKQRYTIDMLNSAIAYMSVKREQTIQANRLKQTLGINVDLITPEEGAAYWSAKAAYKQVWDRLRIVLPEMGFEISDMDSAKGLYFIKFTDNSGFWSSLWNNNQLSLKEGSYRLLLEDGDTPDETKIWLRDAEDQPLSNDVVSKVYESLSSLMKEERKLR | not soluble |
| MAKYIEIANTLRTSISNHEYKNNDPFPDQQALSKKFSTSRMTIQKALNILKTEGLIYSKQGSGTFVSSNADLIEQTDLEINQYIGTTDLFGKTHKINSKIIKFTIRYPDKSEQNALRISKKDLIYDITRLRIVDEEPYVLEYTKMPVKVIPGISDDILKKSIYHYIKSDLNLKIGSAFRKIRADKPNLFDKKFLNCKNEDPILEITQTAFLNSDIPFEFSRVRYRYDKGNMVVFVKSSFER | not soluble |
| MILPPIPTPFDREGRLDEEAFRELAQALEPLVDGLLVYGSNGEGVHLTPEERARGLRALRPRKPFLVGLMEETLPQAEGALLEAKAAGAMALLATPPRYYHGSLGAGLLRYYEALAEKMPLFLYHVPQNTKVDLPLEAVEALAPHPNVLGIKDSSGDLSRIAFYQARLQEFRVYTGHAPTFLGALALGAEGGILAAANLAPRAYRALLDHFREGRLAEAQELQKKLFPLGDLLAKGGVPLLKQALRHLGLPAGYPRPPYPAESPLWERFLPVLEGLKEEGWVL | soluble |
| MQILKVIGLLMEYPDELLWECKEDALALIRRDAPMLTDFTHNLLNAPLLDKQAEWCEVFDRGRTTSLLLFEHVHAESRDRGQAMVDLLAEYEKVGLQLDCRELPDYLPLYLEYLSVLPDDQAKEGLLNVAPILALLGGRLKQREAPWYALFDALLQLAGSSLSSDSVTKQVNSEERDDTRQALDAVWEEEQVKFIEDNATACDSSPLNQYQRRFSQDVAPQYVDISAGGGK | not soluble |
| MATGQDRVVALVDMDCFFVQVEQRQNPHLRNKPCAVVQYKSWKGGGIIAVSYEARAFGVTRSMWADDAKKLCPDLLLAQVRESRGKANLTKYREASVEVMEIMSRFAVIERASIDEAYVDLTSAVQERLQKLQGQPISADLLPSTYIEGLPQGPTTAEETVQKEGMRKQGLFQWLDSLQIDNLTSPDLQLTVGAVIVEEMRAAIERETGFQCSAGISHNKVLAKLACGLNKPNRQTLVSHGSVPQLFSQMPIRKIRSLGGKLGASVIEILGIEYMGELTQFTESQLQSHFGEKNGSWLYAMCRGIEHDPVKPRQLPKTIGCSKNFPGKTALATREQVQWWLLQLAQELEERLTKDRNDNDRVATQLVVSIRVQGDKRLSSLRRCCALTRYDAHKMSHDAFTVIKNCNTSGIQTEWSPPLTMLFLCATKFSASAPSSSTDITSFLSSDPSSLPKVPVTSSEAKTQGSGPAVTATKKATTSLESFFQKAAERQKVKEASLSSLTAPTQAPMSNSPSKPSLPFQTSQSTGTEPFFKQKSLLLKQKQLNNSSVSSPQQNPWSNCKALPNSLPTEYPGCVPVCEGVSKLEESSKATPAEMDLAHNSQSMHASSASKSVLEVTQKATPNPSLLAAEDQVPCEKCGSLVPVWDMPEHMDYHFALELQKSFLQPHSSNPQVVSAVSHQGKRNPKSPLACTNKRPRPEGMQTLESFFKPLTH | soluble |
| AHHHHHHGSLGRLARWLRLYGYDTLYGIEDDNEILRIAEEEGRIILTRDVELYRQAQVRNLRAILITSNSFEEQVKQLMMERVEFSELFPENARCPKCNGVIRSAKKEEVKGKVPENVYNSYNEFYICTSCGQIYWPGRQWREMLKMDKKIKANKL | soluble |
| MGSDKIHHHHHHMAKFDLTTPWGRFKTYLHYLWNDHAYLRLGFSNAHWISPELVRANQPWPFQLAWWKKRGIKTIVNLRGGFDGSFYALEKDACERLGLNFVDFVITSREVPIRERVRGAKELFERIEYPALMHCKSGADRAGIMSVFYAHYRLGQPIREAMQQLGPRYLHIKHGNTGVLDYVFEQYLEKGEPKGLTFSDWVESDDYDPVEMKKTFRAGMLGKVLTDKILRRE | not soluble |
| MAGDPMLKQLKKVIITTAIALATLCSTQAFAETNPYLLMQKTADKLFTNIKNNQTKIKANPEYLRDIVREDLMSYVHIRYAGQLVLGKSLSSVSEPQREKFFNAFGKFIEQAYAQILTQYEDQQIQIENEKPLGDKSIVSIRVNVLSSGSTPPIKLDFKWRKNSKTGEWQAYDMAAEGVSMVATKQNEWSNILRQQGIDALTNQVEKAAKQPITLNKLEHHHHHH | soluble |
| GSNKLHLRVVTLIEHPFVFTREVDDEGLCPAGQLCLDPMTNDSSMLDRLFSSLHSSNDTVPIKFKKCCYGYCIDLLEQLAEDMNFDFDLYIVGDGKYGAWKNGHWTGLVGDLLSGTANMAVTSFSINTARSQVIDFTSPFFSTSLGILVRTRGTELSGIHDPKLHHPSQGFRFGTVRESSAEDYVRQSFPEMHEYMRRYNVPATPDGVQYLKNDPEKLDAFIMDKALLDYEVSIDADCKLLTVGKPFAIEGYGIGLPPNSPLTSNISELISQYKSHGFMDVLHDKWYKVVPCGK | soluble |
| MSLTQETALGAALKSAVQTMSKKKQTEMIADHIYGKYDVFKRFKPLALGIDQDLIAALPQYDAALIARVLANHCRRPRYLKALARGGKRFDLNNRFKGEVTPEEQAIAQNHPFVQQALQQQSAQAAAETLSVEAEAAESSAAEEGGSHHHHHH | soluble |
| MGSDKIHHHHHHMRIYSFYNENARRETLEEHVATALKLLDSAENSKLVKYGKKLSPEFERAVKLAIIFHDTGKVFFQIKKGYGYMSFRGHEYFSTYIFDVFARRLIKSEIENYEALSELRKICNFSIFFHHHAMNIRMREPEAGSNIKAGLKLLDVLYSEVKRFLEDKEKKALKAALEEVKEKGTANLTGYVKGEIVREVWRNAMDSSKLKRLCYLNLLVLIAADYSSAALNRGGNKTPFGRVVEEFSEFYLK | not soluble |
